The NTF2 design screens of Basanta et al. (2020)

Assay: protease stability score; higher = more stable; yeast display proteolysis, trypsin and chymotrypsin;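 note: log10 excess protease needed over predicted unfolded state with 0 meaning unfolded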

Sequence | protease stability score
DDEETAKRHQREWQKNLEFNDEKSIQELVDPNARWQIGDKEVHGREEWARQLRRLREDVDHVQIHVKHVEVSNGQYNLNILIKYNINGETHKIRLVYVAQKNNGRVLVRSVEHK | 0.655
EEERQKKAEQWVHAYRHNNEDEIRQLADPNVRFNVGDTRITGRENVMKTLDDQMRHQRVRFHDIQIRVKGDKINITIDAEYESNGRPSRRTLSLEMHLHNGKISHARIDIQG | -0.128
DTESLKKVEDVVNNNDKKKHERLLDKDVRIVVGDKEVRGREQAARDYKRFVNHADHIEIKRVRSNGDKLFIDRVVNFNGQTVHFVVTYVVKNGSIQEVSVKVTDKEHLKLYKEALR | 0.196
EEHLKHVVEELWKAMQTGDEDKIRRNADPNAHFSIGDKVIQGRERFAQDVRQTYDEIRVDIKIHRMNIQGEKVKVRFTFEQKVNGKPRSDENSAENTLHNGKVEEMNITIDPDKQRKFES | -0.43
DEEAREILRRFFTALNTNDEDQLVELVDKDVKIQVGDKEIHGREELKEHQVESYRRSRVDFRVTDIKASGDKVTAKIVVSRESDGQPRKTTQRMEFRFENGHMKHVHEDSDG | 0.064
DHQELAEKWFRTFVTNQERGDEESLVKMADKDVRLHIGDKTIHGREQFHHWIQELRRRVDHQSMTVRHIDVQGDKIRIDAEAVFNVNGRNDKFKIDIEAEIQGDKVVLKRIIFN | 1.63
DTDKTARQLVRDLEKALQTGDPDKLAKLFDKDARINVGEKDYQGRERMQRNWRRDNTRIDHVSVDLKDMKIQGNKISVDMTIKFKVDGHHNSRVVVLLFDNDNGTVRAVENQQK | 0.16
DPKKVEDVAKKVAKAFQDGNEEELKKHLDPTGRAKIADEETQGIEQIIKKLKKVMKLGVQVENKETRYEGNRVEFHTEYRDGDKQATMTVVYHADNGKVKEIRVQYDRDAKEMYEKG | 0.658
DEEATKELREWLHNRTKNNEEELHKYADPNAKFVIGDKTYHGMEEAVESQVHKDKHMNIHIESIHMDADGEHVRASEVVTFEVNGKPFRYSFRYNVTMSNGRLKSQSVRVDERDEEQEKQ | -0.325
DEREQIKKVLKRLEDIFKSGDEDKARELIDPNARMEYGDKELHGREKMARFIHELRKRIDHMEISLQDFKVKGDKLVFRAHLEAEVNGRKTSMTLRVVAHVEGDKIKIKEIQIK | 1.65
DESVTEQANKMLDNIEKNNPEKVREQVDPNAKLQIGDKTLSGREHVQKQVEREMKDISVTRDLKSVNVRNGRAVFDMTVDFDVNGKPIHAHQVMEVQATNGRIKSVTYKIDTEELRKIDK | -0.499
DEEELEKMAEKVIKMLRSGDPRQAVRMMDENAHVEYGDKTYHGREDAERAVKQWTDHFDKVRVVHVDVHNGTVNVDMEINHNGRVERYVVRVEVHNGRVKHLVVKSS | 1.2
DEEAIKQAKKLLDALRTGDEETLKEMIDPNARIHVGDKEVHGREEAAEQWQRRQEEQSMDWKVKSVENTNGRAEFRATATRRHNGQPDHFDFTWRVQAHNGRVKHMQVETRG | -0.262
DHNDHARRLFEQWVQAIEHNDPDQIRKNLPPNVKVTIGDKTISGRENVVRTVKRELHRVDHIRIQLDHVEVQGDKIVLRANVRQDHNGQNRHFTLRLVANTFNGREQFIDIQLN | -0.121
DEEDLKKVVDQLIKAVVNGDVEKIVKYIDEDVEFKLGDTKYKGKEEAKKVVTKLVQVGAEVHVDHVRVKGDEAEVDTVWHIGNTEAHMTVKYVVRGDKVERVEVRWTEEVKKAIKAG | 1.46
DEERAQHLVDQIFRAFKRGDPEQFKKMFDPNARMHVGDQRYHGREDIIKFLQEIREQADTITLRKVTVHNGQADIIVDVQVDGRRVRIQILINYHNGKVKSLKIHYTDEELQKEIES | 1.56
DEKEEAEKFFEQYKHALHRGDPDQMANLADKDVRAEIGDKVVHGRDQLMTYVKTLKEHYDDISLKLKDVQVSGDKAQLHAVLTLNHNGKNDKIHIVIRMVRQGDELVMTSITYR | 0.935
DSDAARILVEFWTALQKGDHDRLKQNMDPNAKMKIGDHTLHGREQIAEHATKLKREMRIDIRLKSFDDDGDHAILKFEMRVDVNGKPFSMDVTVNVKAHNGHLVKVNFRIPEKDLQRLNS | 0.633
DEDQVRRIIQDLRRNNFEKMVELMDEDVKIDVGNYDYHGREAAHEILDRIRRQIDHIEYKSVTAQGDKIDVKAVAIINGKEWTFRVEVDADNGRIHSMKIRFRSEKEEQDYQKEVQ | 1.11
EHELERQASKFAQLLRTNDFEKLLEMFDENARIEVGDKFVQGRDRIKKKLERDKTEMNRRYEDIKFTANGNTLNIKVIFTENHNGKPKRTVQLILITFRNGRIKRVEVRDDG | -0.065
DEKRQQDQAKKIADALSTGDEDQFLQNMDPNAHVRVGDKTFHGRDDVRRMLREVNEHVDEINVHDVSVHNGQVDAVLVWEHNGRKQRKKVVVDRHNGRVHSVEIRDQ | -0.189
EEEAREAVKRVMKAHETNDPDKMMQNFDPNAKLTIGDTELHGREEARKHWEDNLKEIEIRIETWHVEDEGDKATLKVVYVREHNGQPTRERAVVYLRVKNGKVQTVSNQSRK | 0.292
DNEKALERAEEAARAVARGNEDELRKLAPPDVSAQYGDHRINGMDQVVEQIKEMRRAVDHIKIQTIRKNGNSVTLTVELTYNGQQMHMHVEVEVHNGELKHVRMHVTDEERWRRQES | 0.855
DEEVHKAITHYIEALHKGDPDRAANQMDENVRIEIGDKSITGREHAKHHLERLFKQMEFRITVDRVEVHNGTATAEIHWSSDRNGKPDSNTRRMTAEVHNGKIKQIVFKSDS | 1.02
DEEFNKEVKKMFDNLEKGNEEEYLRMLDENAKAQYGDHDVRGREELKKELHRQRKEIRVKYQSVDIRMHNGELSVRFRAEVVVNGRPHTVERTQSAKVQNGRVQSMKLKIDEEQKERLEG | -0.251

Sequence | protease stability score
DEENAKIIENLIRANETNDPDRAVQLADENVDFRIGDRTYRGMDEYATQMAHEFKEIEMRIHLKTFDTQGEKVRLEADVKRTHNGKPESFRAVMVANASNGRVVEIDVQMDK | 0.974
DDREIKELLQLMLDAIRDGNEQSASKMADENARVKVGDKKVHGREQIQELVKELKKNVDHFTVNDIKQQGDKASADAEMDVNGVTVHMEVRVQVHNGHVKHAEMTYRDEDQKRQFHQ | -0.433
DEDEVKEVLKRIKSNDWHTLAKQADENARAVVGDKTYHGRTQMKKWMDKVRKRVDHIEISKVKQEGDKAVVDLVFQVNGVKVHLVIYIHVHNGKVVDVQAKARNEEELHKLKKAVS | 0.331
EEENFNRANEFMKAVETNDPDKLKHNADENVQITYGDKSYQGRESWAKDLQRKLKHMRWRYEFKSYHDTGDSVDVSLRVMATVNGKPRDFHLRMIIHFKNGKIKNIELRLDPDELDKLES | 0.648
DETAKKHFEELMKVWKHGDFRRAQELLDPNVRVVIGDQQFHGREDVAKKIAEHLHRMEVEIKDYRVKNDGEKIHIEVDAVFERNGRPERRRYVAVYRVHNGRFKEMSQQEDK | 1.05
DEEDKKKLNHTVANVIQHGDEKQARRLMDPNVKVVIGDKTYNGRHKATEALKTLRDRADEIRVHDFRLEGDHINIIIELHINGQQTTLEIEVQFSGDKIKSVVFKTR | 0.795
DQEDLKHLANVLRTGDWDRLRDLFDENARVKIGDKEVHGKEDAKKLAEQLKRSIDHMKISTWSITNGVLEMHFRVNVNGKTYEVQMELHAHNGRIKSMELHYRNREVKHVIKEMLD | 1.08
DEEHREDSIRKVFEVLQTGDPKRFRENVDKNAKARVGDREVRGTKAADTFAHNIVKRADHVRIRRVHVHNGVVVVTEQQTVNGKEVIMVVFMEMNNGKMKLVEVNPEQLKELEG | -0.394
DHKEHAEKFAQQLDEAHKKNDPRQFLRLMDKDVRVSVGDKTVHGKENIRKQLEDLTKQADSIEFKVKSIRVTGDKVRLEFEVVYRHNGRHSRQTVVMYLKLHNGRAVIKSVQVK | 0.159
DDHALERLRSLNHIEDDGNEEKVEEMLDPNATVEVGDKRYHGSHHYVDHVRQRKEKQRYSQQFKHFHREPGRIVVHATAKFQVNGKPFKYTLTQVARLSNGKFTDIKVDVPERLKEQRQQ | -0.258
DEDALDLLEKAARAYQTGDPDQLMRNLDEDAKVDVGDKKIRGRNDARRHLQELKDKIELHLHVTEMSVQGNKVHAHFKLHSDQNGKPYHTDVEMRADVHNGRVKRMEIRTTK | -0.159
DEKNSKLAKDFFEAIESNNPEHAKELADENARYQVGDKQLHGMDEVLKHIKRENERAQVTVSSMTFRISNGRVEVHMDVQRDDNGDPDKKNLVVNFHFRNGKIKEVQDKNDS | 0.614
DETEQAKKLLNDIENIFRTGDPKQLEKLAPPDVDVRVGDKEVHGKEQVVEELQRRQESFDHIEFNLHRVSVSGDKYRLDYEVRFDHNGRTETYRVVVVYVNNNGRLQDKSMTIK | 0.684
DEHELNKFEQLLRDRETGDEEHLKRLMDKDARVNVGDKNVHGREEAANQQVERVKRMDVRILHMDLKDNNGKINADITRIIHTNGHPDKHQFVLTVDVKNGRVQNIRQDDTS | -0.284
DDEAMKQFRHWVEAYTTGDSQRLRELVDPNATVRVGDKTYTGMEDIAKNIHQQVRRQRFHVELKRVNNQPNRIEVDLDVTFNVNGKPIRIRLRMQAEMHNGRFKYIEVRFDPDEQRKLES | 0.861
DETHDAHRKAEEIITALRTGDPKQAESLVPENVKIDVGDKTIHGKEQYSKEFKKFTDRVDKVEVRIKHVHVQGDKIKIRMEARENVDGQDKRYQFVLIFDRHNGKDQAVSIKVD | 1.02
DEKKVREFMERLFKAAENGNKDELRKVLMPNVKYQYVDKEKEGEEVAKEVAKAVKKVGAEIKKQEERVKGDTVEAVFQYKQGDTTVQTTVQIKYEGDKAKEVRVKLSDEVKKIVHRG | -0.079
DDEVFRRFQEALDIVKKGDPKKFEEMADPNARVKVGDKQLHGRETIAKDIADHMKEMKIEWRVKKLTTNEDHVNVTERWQQKHDGRPEDRERRARVRARGDKLKNHEVETDG | 0.118
DDEEAKRVAEEVIKAMQKGDEEHFDRLVDPDVRLNVGDKVLHGRRDLRRWVKEVADKADHVQVDDVKVNNGTAKIRFRIDINGQTEEVIMHIHVTNGEVKSMRVQRT | 1.43
DNRLQRWADRWLEVVETGNPEEIRKLVDKDVDVEIGDQQYKGQDHLSKQWKDFHKHAKLEIKDYKIDVEGDRLVINVDAVYNVNGQPRRNRYNLEFKLHNGKVRSVHFRIDPDEQRKMDS | 1.44
DEHVEHLVHEIMDALRTNDPDRLRQLMDPNAHAQIGDKQLHGRRTMVDHWQDTLEEIRVSIDVKSFSVKNGRADMTAKVEREDNGKPDDRTADIHIEFHNGKAVRIDVKYKG | 0.275
DEEHELDMARKMFEAVKQGDEEEVQRNAPPDVRMEIGDRTYHGREQVRKAAKEFQKRVDHMQLDSVKLHNGDVHAKVILNINGKNNDVVVQIHIDNGRITELRFKTS | -0.06
DPTELLKYAEKLLEALMKGDSELATKMGKPDVEVQTGDQKYKGQDDLRKVVKKIKDYGVENKIDETEKDGGQVKVKIVARIGDREYTFTWVAEAENGKVRKVQLDIPEDLEKDLKHG | 0.739
DEHEMKKVADQIVDILRTGDQDRFRDLADPNVRVSVGDKTVHGRHQAQQQVKRLKDQVDHVQLKDMKIHGNTVVVKAHVEINGNTTDRDVKFELHNGRVSHLTIDPEAQKVMDT | 0.273
DEEHMEHFREVMEQNDPDELNELVDPNARLVIGDKKYHGRDTVVKLIKRFWSKADHNRLRSLTIRNGRASWRMQATVNGQRLDFTVEAVFHNGRLKTMRFKFRDRSQVDHFRRLLQ | 1.74
